Tests used:
[1] = target: TNFα (UniProt P01375); experiment: ELISA, coated TNF-α, Ab 100 nM
[2] = target: FASL (UniProt P48023); experiment: ELISA, coated FASL, Ab 25 nM
[3] = target: LIGHT (UniProt O43557); experiment: ELISA, coated LIGHT, Ab 0.000 nM (blank)
[4] = target: FASL (UniProt P48023); experiment: ELISA, coated FASL, Ab 100 nM
[5] = target: TNFα (UniProt P01375); experiment: ELISA, coated TNF-α, Ab 6.25 nM
[6] = target: FASL (UniProt P48023); experiment: ELISA, coated FASL, Ab 1.563 nM
[7] = target: TNFα (UniProt P01375); experiment: ELISA, coated TNF-α, Ab 0.391 nM
[8] = target: T1, LT-α (UniProt P01374); experiment: ELISA, coated LT-α, Ab 0.000 nM (blank)
T1 sequence (looked up): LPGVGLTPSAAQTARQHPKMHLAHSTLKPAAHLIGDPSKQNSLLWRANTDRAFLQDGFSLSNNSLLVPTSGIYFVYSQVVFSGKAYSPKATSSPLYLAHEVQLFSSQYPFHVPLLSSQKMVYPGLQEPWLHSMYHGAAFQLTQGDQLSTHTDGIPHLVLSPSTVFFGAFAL

[9] = target: LIGHT (UniProt O43557); experiment: ELISA, coated LIGHT, Ab 1.563 nM
[10] = target: T1, LT-α; experiment: ELISA, coated LT-α, Ab 25 nM
[11] = target: TNFα (UniProt P01375); experiment: ELISA, coated TNF-α, Ab 1.563 nM
[12] = target: FASL (UniProt P48023); experiment: ELISA, coated FASL, Ab 0.391 nM
[13] = target: T1, LT-α; experiment: ELISA, coated LT-α, Ab 100 nM
[14] = target: human TL1A (HuTL1A) (human) (UniProt O95150)
[15] = target: FASL (UniProt P48023); experiment: ELISA, coated FASL, Ab 6.25 nM
[16] = target: LIGHT (UniProt O43557); experiment: ELISA, coated LIGHT, Ab 25 nM
[17] = target: LIGHT (UniProt O43557); experiment: ELISA, coated LIGHT, Ab 100 nM
[18] = target: LIGHT (UniProt O43557); experiment: ELISA, coated LIGHT, Ab 6.25 nM
[19] = target: human TL1A (HuTL1A) (human) (UniProt O95150); experiment: ELISA: biotin-HuTL1A on streptavidin plate, antibody diluted at pH 7.4, HRP-anti-human Fc, OD450
[20] = target: T1, LT-α; experiment: ELISA, coated LT-α, Ab 1.563 nM
[21] = target: human TL1A (HuTL1A) (human) (UniProt O95150); remark: listed apart in the source
[22] = target: LIGHT (UniProt O43557); experiment: ELISA, coated LIGHT, Ab 0.391 nM
[23] = target: human TL1A (HuTL1A) (human) (UniProt O95150); experiment: DLS, antigen and antibody mixed in equal moles
[24] = target: T1, LT-α; experiment: ELISA, coated LT-α, Ab 6.25 nM
[25] = target: human TL1A (HuTL1A) (human) (UniProt O95150); experiment: competition ELISA: antibody dilution mixed 1:1 with Biotin-TL1A, added to coated DcR3 (1 µg/mL), Streptavidin-HRP, OD450; blocked partner of TL1A: DcR3
[26] = target: FASL (UniProt P48023); experiment: ELISA, coated FASL, Ab 0.000 nM (blank)
[27] = target: human TL1A (HuTL1A) (human) (UniProt O95150); experiment: ELISA: biotin-HuTL1A on streptavidin plate, antibody diluted at pH 5.8, HRP-anti-human Fc, OD450
[28] = target: TNFα (UniProt P01375); experiment: ELISA, coated TNF-α, Ab 25 nM
[29] = target: TNFα (UniProt P01375); experiment: ELISA, coated TNF-α, Ab 0.000 nM (blank)
[30] = target: T1, LT-α; experiment: ELISA, coated LT-α, Ab 0.391 nM

Chain of LIGHT (O43557 74-240 limits assumed): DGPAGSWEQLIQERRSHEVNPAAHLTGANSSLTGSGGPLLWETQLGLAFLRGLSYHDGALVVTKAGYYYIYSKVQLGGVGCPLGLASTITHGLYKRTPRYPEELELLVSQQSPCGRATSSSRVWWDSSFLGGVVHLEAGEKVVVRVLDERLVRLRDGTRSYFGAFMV
Chain of TNFα (P01375 77-233 limits assumed): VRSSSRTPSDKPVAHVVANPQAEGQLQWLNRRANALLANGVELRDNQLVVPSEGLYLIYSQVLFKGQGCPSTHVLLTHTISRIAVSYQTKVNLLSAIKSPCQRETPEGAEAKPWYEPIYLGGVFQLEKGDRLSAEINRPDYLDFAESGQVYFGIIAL
Chain of BM1 antibody (Pfizer/Roivant TL1A monoclonal antibody RVT-3101) (VH): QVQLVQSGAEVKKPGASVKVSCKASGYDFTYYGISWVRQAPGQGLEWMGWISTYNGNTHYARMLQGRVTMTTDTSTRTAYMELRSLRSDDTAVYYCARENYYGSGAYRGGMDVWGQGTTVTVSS
Chain of BM1 antibody (Pfizer/Roivant TL1A monoclonal antibody RVT-3101) (VL): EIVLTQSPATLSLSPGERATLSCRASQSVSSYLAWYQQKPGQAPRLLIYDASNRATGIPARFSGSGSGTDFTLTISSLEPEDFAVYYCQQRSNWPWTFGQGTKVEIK
Chain of FASL (P48023 134-281 limits assumed): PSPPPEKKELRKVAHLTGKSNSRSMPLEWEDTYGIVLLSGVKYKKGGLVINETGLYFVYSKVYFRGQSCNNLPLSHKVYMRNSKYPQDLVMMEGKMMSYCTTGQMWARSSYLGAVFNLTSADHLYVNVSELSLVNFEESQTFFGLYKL
Chain of human TL1A (HuTL1A) (human) (O95150 57-251 limits assumed): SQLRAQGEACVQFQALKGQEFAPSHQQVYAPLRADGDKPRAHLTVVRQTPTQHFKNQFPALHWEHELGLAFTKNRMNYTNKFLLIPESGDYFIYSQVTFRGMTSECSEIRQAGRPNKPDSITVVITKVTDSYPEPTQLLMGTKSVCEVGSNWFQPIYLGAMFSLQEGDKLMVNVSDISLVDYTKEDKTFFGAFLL

## BM1 antibody (Pfizer/Roivant TL1A monoclonal antibody RVT-3101)
[1]
  OD450 nm: 0.0815
[2]
  OD450 nm: 0.0609
[3]
  OD450 nm: 0.0644
[4]
  OD450 nm: 0.0855
[5]
  OD450 nm: 0.0511
[6]
  OD450 nm: 0.0518
[7]
  OD450 nm: 0.0539
[8]
  OD450 nm: 0.0972
[9]
  OD450 nm: 0.0887
[10]
  OD450 nm: 0.0845
[11]
  OD450 nm: 0.0523
[12]
  OD450 nm: 0.051
[13]
  OD450 nm: 0.0823
[14]
  IC50 (read off the curve); SEAP reporter in HEK293T/DR3-NFκB cells with soluble TL1A, OD655: 2 nM
[15]
  OD450 nm: 0.0513
[16]
  OD450 nm: 0.0916
[17]
  OD450 nm: 0.0996
[18]
  OD450 nm: 0.0903
[19]
  EC50 (read off the curve): 0.1 nM
[20]
  OD450 nm: 0.095
[21]
  IC50 (read off the curve); IFN-γ of human T cells with IL-12, IL-18 and exogenous human TL1A: 0.5 nM
[22]
  OD450 nm: 0.0834
[23]
  Ave Z-dia (nm) of the antigen-antibody complex: 85.7 nm
[24]
  OD450 nm: 0.0909
[25]
  IC50 (read off the curve): 0.2 µg/mL
[26]
  OD450 nm: 0.0544
[27]
  EC50 (read off the curve): 0.1 nM
[28]
  OD450 nm: 0.0601
[29]
  OD450 nm: 0.0666
[30]
  OD450 nm: 0.0978
